Source: patent US11896644B2, “Inhibition of beta-arrestin oligomerization in tauopathy” (UNIVERSITY OF SOUTH FLORIDA, priority 2020, dated 2024)

Tests used:
Assay type in all cases: cell-based
tau in Hela-V5-tau cells = test: Tau immunocytochemistry in Hela-V5-tau cells expressing YFP-β-arrestin2 mutants
Source text: (§1) FIGS. 11A to 11E show β-arrestin2 oligomerization mutants reduce tau aggregates. FIG. 11A contains representative confocal images of total tau in Hela-V5-tau cells transfected with YFP, YFP-β-arrestin2 ΔIP6C, or YFP-β-arrestin2 ΔIP6N (Scale bar=10 μm). FIG. 11B contains representative confocal images of proximity ligation assay (PLA) in Hela-V5-tau cells transfected with β-arrestin2-flag and β-arrestin2-myc with YFP control, YFP-β-arrestin2 ΔIP6C, or YFP-β-arrestin2 ΔIP6N.
Cells were fixed with 4% paraformaldehyde for 15 min at room temperature and washed with 0.2% triton in TBS and blocked using 3% BSA with 0.1% triton x-100 for 1 hr, incubated with primary antibodies for overnight at 4° C. and fluorescently labeled secondary antibodies for 45 min at room temperature. For immunohistochemistry, mice were perfused with PBS and fixed with 4% paraformaldehyde. […] Images were captured with the Olympus FV10i confocal microscope (Tokyo, Japan), and the immunoreactivities were quantified using the Image J software (National Institutes of Health, Bethesda, MD). Immunoreactivities were quantitated from every 12th serial section through an entire hippocampus. […] Regions of interest were chosen randomly, and investigators were blinded to experimental conditions during image acquisition and quantification. […]

tau aggregates = test: Filter-trap assay for tau aggregates from Hela-V5-tau cells; settings: vs control vector
Source text: as §1
When DIV 18 tau P301S cortical primary neurons were transduced with either β-arrestin2 ΔIP6C or ΔIP6N lentivirus, an approximately 50% reduction in tau compared to control was evident (FIGS. 4A,4B), which represents a key finding relevant to both mechanism of action and potential therapeutic strategies. […] Also investigated was whether β-arrestin2 oligomerization is required for slowing tau turnover by disrupting oligomerization using these mutants in several models. […] To determine whether β-arrestin2 oligomerization status alters tau aggregation itself, filter-trap assays were performed from Hela-V5-tau cells transfected with β-arrestin2 variants, in which tau aggregates from detergent-soluble and-insoluble lysates were captured by cellulose acetate membranes and assessed by immunoblotting.

[1] = molecular target: T1, βarrestin1/βarrestin2 hetero-oligomers (UniProt P29067+P49407); test: PLA for βarrestin1/βarrestin2 hetero-oligomers in HeLa-V5-tau cells
T1 construct: expressed in transfected cells; host or cells: HeLa-V5-tau cells
Source text: FIGS. 24A to 24D show β-arrestin2 oligomerization mutants impair β-arrestin1 homo-oligomers and β-arrestin1/β-arrestin2 hetero-oligomers. HeLa-V5-tau cells were co-transfected with vector control or β-arrestin2 oligomerization mutants (ΔIP6C or ΔIP6N) together with βarrestin1-GFP+βarrestin1-myc or βarrestin2-myc. Cells were then subjected to proximity ligation assay (PLA) using antibodies against GFP and mycto detect βarrestin1 homo-oligomers (FIGS. 24A,24B) and βarrestin1/βarrestin2 hetero-oligomers and DAPI staining (FIGS. 24C,24D) (puncta).

HA-p62/GFP-p62 complex = molecular target: T2, HA-p62/GFP-p62 complex (Homo sapiens, UniProt Q13501); test: PLA of HA-p62/GFP-p62 complex (p62 self-interaction); settings: Hela-V5-tau cells
T2 construct: #38277; host or cells: Hela-V5-tau cells
Experimental: Data are shown as box plots or mean±SEM.
Given the effects on p62 autophagy flux, whether β-arrestin2 physically interacts with p62 was tested. […] Given that β-arrestin2 oligomeric mutants, ΔIP6C and ΔIP6N, reduced tau aggregates by slowing tau turnover, next tested was whether β-arrestin2 ΔIP6C and ΔIP6N mutants affect p62 self-association by a proximity ligation assays (PLA) as well as co-IP. […] Recent studies have shown that purified recombinant p62 spontaneously forms globular oligomers (Zaffagnini G, et al. (2018) EMBO J 37(5)). To test whether β-arrestin2 can directly affect p62 oligomerization in vitro, purified recombinant p62, β-arrestin2, and p62 mixed with β-arrestin2 with atomic force microscopy were visualized. Recombinant p62 spontaneously formed visible globular particles between 5-100 nm in diameter (FIG. 5K), whereas only very few small β-arrestin2 particles were visible under identical conditions (FIG. 5K). […] Next tested was whether β-arrestin2 oligomerization is required for bafilomycin A-induced p62 puncta formation. As expected, GFP-p62 puncta were increased upon bafilomycin A treatment in control vector transfected cells (FIGS. 5M,5N).

T1 sequence (P49407 whole entry): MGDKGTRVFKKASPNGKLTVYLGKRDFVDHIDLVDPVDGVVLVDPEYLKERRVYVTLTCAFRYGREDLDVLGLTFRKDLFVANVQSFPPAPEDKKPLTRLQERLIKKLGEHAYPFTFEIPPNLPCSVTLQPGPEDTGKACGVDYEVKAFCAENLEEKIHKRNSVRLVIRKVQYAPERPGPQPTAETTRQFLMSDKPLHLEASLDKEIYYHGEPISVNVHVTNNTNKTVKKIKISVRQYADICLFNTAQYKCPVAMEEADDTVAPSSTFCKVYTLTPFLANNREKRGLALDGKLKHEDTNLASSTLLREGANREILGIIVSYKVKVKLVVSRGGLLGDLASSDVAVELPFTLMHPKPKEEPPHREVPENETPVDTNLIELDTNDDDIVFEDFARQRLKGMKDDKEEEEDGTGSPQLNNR
T1 sequence (P29067 whole entry): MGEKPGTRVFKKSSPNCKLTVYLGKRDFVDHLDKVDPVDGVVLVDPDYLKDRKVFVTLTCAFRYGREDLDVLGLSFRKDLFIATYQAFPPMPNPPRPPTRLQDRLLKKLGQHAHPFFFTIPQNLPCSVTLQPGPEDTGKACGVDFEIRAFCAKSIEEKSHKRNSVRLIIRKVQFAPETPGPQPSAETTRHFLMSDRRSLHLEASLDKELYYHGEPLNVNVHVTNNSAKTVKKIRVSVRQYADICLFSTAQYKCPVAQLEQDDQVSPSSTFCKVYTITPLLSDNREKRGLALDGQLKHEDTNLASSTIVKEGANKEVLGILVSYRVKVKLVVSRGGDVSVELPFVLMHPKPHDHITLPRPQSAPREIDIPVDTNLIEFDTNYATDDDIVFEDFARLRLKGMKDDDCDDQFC

B1: β-arrestin2 ΔIP6N: β-arrestin2 N-terminal domain mutant (K158A, K161A, and R162A), incapable of forming oligomers; dominant negative (protein, UniProt P32121 1-409, looked up, variant K158A K161A R162A)
Beta-arrestin-2: MGEKPGTRVFKKSSPNCKLTVYLGKRDFVDHLDKVDPVDGVVLVDPDYLKDRKVFVTLTCAFRYGREDLDVLGLSFRKDLFIATYQAFPPVPNPPRPPTRLQDRLLRKLGQHAHPFFFTIPQNLPCSVTLQPGPEDTGKACGVDFEIRAFCAKSLEEASHAANSVRLVIRKVQFAPEKPGPQPSAETTRHFLMSDRSLHLEASLDKELYYHGEPLNVNVHVTNNSTKTVKKIKVSVRQYADICLFSTAQYKCPVAQLEQDDQVSPSSTFCKVYTITPLLSDNREKRGLALDGKLKHEDTNLASSTIVKEGANKEVLGILVSYRVKVKLVVSRGGDVSVELPFVLMHPKPHDHIPLPRPQSAAPETDVPVDTNLIEFDTNYATDDDIVFEDFARLRLKGMKDDDYDDQLC
modifications: GFP or YFP tag
notes: dominant negative
- tau by immunocytochemistry (tau in Hela-V5-tau cells): significant reductions
- tau aggregates in detergent-insoluble lysates (filter-trap) (tau aggregates): significantly reduced tau aggregates
- βarrestin1/βarrestin2 hetero-oligomers (PLA puncta) [1]: significantly reduce
- HA-p62/GFP-p62 PLA puncta (p62 self-interaction) (HA-p62/GFP-p62 complex): neither β-arrestin2 ΔIP6C nor β-arrestin2 ΔIP6N reduced HA-p62/GFP-p62 PLA puncta
